Values joined by “and” are separate entries in the source; they are usually repeats but may differ in a detail not shown here. Identical values can stand only once.
B1: Lysozyme C, P61626 (parent)
chain: MKALIVLGLVLLSVTVQGKVFERCELARTLKRLGMDGYRGISLANWMCLAKWESGYNTRATNYNAGDRSTDYGIFQINSRYWCNDGKTPGAVNACHLSCSALLQDNIADAVACAKRVVRDPQGIRAWVAWRNRCQNRDVRQYVQGCGV

Variants of: B1
Details: Homo sapiens; pH 2.52; Thermal; DSC; glycine-HCl 0.05 M; reversible: yes; structure 1LZ1; whole UniProt chain shown

Row | Variant | Tm | unfolding enthalpy (calorimetric)
1 | MKALIVLGLVLLSVTVQGKMFERCELARTLKRLGMDGYRGISLANWMCLAKWESGYNTRATNYNAGDRSTDYGIFQINSRYWCNDGKTPGAVNACHLSCSALLQDNIADAVACAKRVVRDPQGIRAWVAWRNRCQNRDVRQYVQGCGV | 60.6 °C | 106 kcal/mol

Same assay, conditions: Homo sapiens; pH 2.7; 64.9 °C; Thermal; DSC; glycine-HCl 0.05 M; reversible: yes; structure 1LZ1; whole UniProt chain shown

Row | Variant | ddG of mutation (higher = less stable)
2 | MKALIVLGLVLLSVTVQGKMFERCELARTLKRLGMDGYRGISLANWMCLAKWESGYNTRATNYNAGDRSTDYGIFQINSRYWCNDGKTPGAVNACHLSCSALLQDNIADAVACAKRVVRDPQGIRAWVAWRNRCQNRDVRQYVQGCGV | 0.31 kcal/mol
3 | MKALIVLGLVLLSVTVQGKIFERCELARTLKRLGMDGYRGISLANWMCLAKWESGYNTRATNYNAGDRSTDYGIFQINSRYWCNDGKTPGAVNACHLSCSALLQDNIADAVACAKRVVRDPQGIRAWVAWRNRCQNRDVRQYVQGCGV | -1.1 kcal/mol
4 | MKALIVLGLVLLSVTVQGKVFERCELARTLKRLGMDGYRGISLANWMCLAKWESGYNTRATNYNAGDRSTDYGIFQINSRYWCNDGKTPGAVNACHLSCSALLQDNIADAVACAKRVVRDPQGIRAWLAWRNRCQNRDVRQYVQGCGV | -0.07 kcal/mol

Same assay, conditions: Homo sapiens; pH 2.7; Thermal; DSC; glycine-HCl 0.05 M; reversible: yes; structure 1LZ1; whole UniProt chain shown

Row | Variant | Tm | change of melting temperature, mutant - wild type (higher = more stable) | heat capacity change of unfolding | unfolding enthalpy (calorimetric)
5 | MKALIVLGLVLLSVTVQGKMFERCELARTLKRLGMDGYRGISLANWMCLAKWESGYNTRATNYNAGDRSTDYGIFQINSRYWCNDGKTPGAVNACHLSCSALLQDNIADAVACAKRVVRDPQGIRAWVAWRNRCQNRDVRQYVQGCGV | 63.9 °C | -1 °C | 1.55 kcal/mol/K | 113 kcal/mol
6 | MKALIVLGLVLLSVTVQGKIFERCELARTLKRLGMDGYRGISLANWMCLAKWESGYNTRATNYNAGDRSTDYGIFQINSRYWCNDGKTPGAVNACHLSCSALLQDNIADAVACAKRVVRDPQGIRAWVAWRNRCQNRDVRQYVQGCGV | 68 °C and 68.3 °C and 64.9 °C | 3.4 °C | 1.58 kcal/mol/K | 114 kcal/mol and 108 kcal/mol
7 | MKALIVLGLVLLSVTVQGKVFERCELARTLKRLGMDGYRGISLANWMCLAKWESGYNTRATNYNAGDRSTDYGIFQINSRYWCNDGKTPGAVNACHLSCSALLQDNIADAVACAKRVVRDPQGIRAWMAWRNRCQNRDVRQYVQGCGV | 66.3 °C and 66.5 °C and 64.9 °C | 1.6 °C | 1.41 kcal/mol/K | 114 kcal/mol and 112 kcal/mol
8 | MKALIVLGLVLLSVTVQGKVFERCELARTLKRLGMDGYRGISLANWMCLAKWESGYNTRATNYNAGDRSTDYGIFQINSRYWCNDGKTPGAVNACHLSCSALLQDNIADAVACAKRVVRDPQGIRAWLAWRNRCQNRDVRQYVQGCGV | 65 °C and 65.1 °C and 64.9 °C | 0.2 °C | 1.29 kcal/mol/K | 108 kcal/mol and 109 kcal/mol

Same assay, conditions: Homo sapiens; pH 2.73; Thermal; DSC; glycine-HCl 0.05 M; reversible: yes; structure 1LZ1; whole UniProt chain shown

Row | Variant | Tm | unfolding enthalpy (calorimetric)
9 | MKALIVLGLVLLSVTVQGKMFERCELARTLKRLGMDGYRGISLANWMCLAKWESGYNTRATNYNAGDRSTDYGIFQINSRYWCNDGKTPGAVNACHLSCSALLQDNIADAVACAKRVVRDPQGIRAWVAWRNRCQNRDVRQYVQGCGV | 64.5 °C | 112 kcal/mol

Same assay, conditions: Homo sapiens; pH 2.94; Thermal; DSC; glycine-HCl 0.05 M; reversible: yes; structure 1LZ1; whole UniProt chain shown

Row | Variant | Tm | unfolding enthalpy (calorimetric)
10 | MKALIVLGLVLLSVTVQGKMFERCELARTLKRLGMDGYRGISLANWMCLAKWESGYNTRATNYNAGDRSTDYGIFQINSRYWCNDGKTPGAVNACHLSCSALLQDNIADAVACAKRVVRDPQGIRAWVAWRNRCQNRDVRQYVQGCGV | 68.3 °C | 118 kcal/mol

Same assay, conditions: Homo sapiens; pH 3.09; Thermal; DSC; glycine-HCl 0.05 M; reversible: yes; structure 1LZ1; whole UniProt chain shown

Row | Variant | Tm | unfolding enthalpy (calorimetric)
11 | MKALIVLGLVLLSVTVQGKMFERCELARTLKRLGMDGYRGISLANWMCLAKWESGYNTRATNYNAGDRSTDYGIFQINSRYWCNDGKTPGAVNACHLSCSALLQDNIADAVACAKRVVRDPQGIRAWVAWRNRCQNRDVRQYVQGCGV | 70.6 °C | 122 kcal/mol

Same assay, conditions: Homo sapiens; pH 3.31; Thermal; DSC; glycine-HCl 0.05 M; reversible: yes; structure 1LZ1; whole UniProt chain shown

Row | Variant | Tm | unfolding enthalpy (calorimetric)
12 | MKALIVLGLVLLSVTVQGKMFERCELARTLKRLGMDGYRGISLANWMCLAKWESGYNTRATNYNAGDRSTDYGIFQINSRYWCNDGKTPGAVNACHLSCSALLQDNIADAVACAKRVVRDPQGIRAWVAWRNRCQNRDVRQYVQGCGV | 74.2 °C | 127 kcal/mol

Same assay, conditions: Homo sapiens; pH 2.5; Thermal; DSC; glycine-HCl 0.05 M; reversible: yes; structure 1LZ1; whole UniProt chain shown

Row | Variant | Tm | unfolding enthalpy (calorimetric)
13 | MKALIVLGLVLLSVTVQGKIFERCELARTLKRLGMDGYRGISLANWMCLAKWESGYNTRATNYNAGDRSTDYGIFQINSRYWCNDGKTPGAVNACHLSCSALLQDNIADAVACAKRVVRDPQGIRAWVAWRNRCQNRDVRQYVQGCGV | 65.1 °C | 108 kcal/mol
14 | MKALIVLGLVLLSVTVQGKVFERCELARTLKRLGMDGYRGISLANWMCLAKWESGYNTRATNYNAGDRSTDYGIFQINSRYWCNDGKTPGAVNACHLSCSALLQDNIADAVACAKRVVRDPQGIRAWLAWRNRCQNRDVRQYVQGCGV | 61.9 °C | 105 kcal/mol

Same assay, conditions: Homo sapiens; pH 2.92; Thermal; DSC; glycine-HCl 0.05 M; reversible: yes; structure 1LZ1; whole UniProt chain shown

Row | Variant | Tm | unfolding enthalpy (calorimetric)
15 | MKALIVLGLVLLSVTVQGKIFERCELARTLKRLGMDGYRGISLANWMCLAKWESGYNTRATNYNAGDRSTDYGIFQINSRYWCNDGKTPGAVNACHLSCSALLQDNIADAVACAKRVVRDPQGIRAWVAWRNRCQNRDVRQYVQGCGV | 72.2 °C | 119 kcal/mol

Same assay, conditions: Homo sapiens; pH 3.13; Thermal; DSC; glycine-HCl 0.05 M; reversible: yes; structure 1LZ1; whole UniProt chain shown

Row | Variant | Tm | unfolding enthalpy (calorimetric)
16 | MKALIVLGLVLLSVTVQGKIFERCELARTLKRLGMDGYRGISLANWMCLAKWESGYNTRATNYNAGDRSTDYGIFQINSRYWCNDGKTPGAVNACHLSCSALLQDNIADAVACAKRVVRDPQGIRAWVAWRNRCQNRDVRQYVQGCGV | 75.5 °C | 125 kcal/mol

Same assay, conditions: Homo sapiens; pH 2.48; Thermal; DSC; glycine-HCl 0.05 M; reversible: yes; structure 1LZ1; whole UniProt chain shown

Row | Variant | Tm | unfolding enthalpy (calorimetric)
17 | MKALIVLGLVLLSVTVQGKVFERCELARTLKRLGMDGYRGISLANWMCLAKWESGYNTRATNYNAGDRSTDYGIFQINSRYWCNDGKTPGAVNACHLSCSALLQDNIADAVACAKRVVRDPQGIRAWMAWRNRCQNRDVRQYVQGCGV | 62.8 °C | 109 kcal/mol

Same assay, conditions: Homo sapiens; pH 3.06; Thermal; DSC; glycine-HCl 0.05 M; reversible: yes; structure 1LZ1; whole UniProt chain shown

Row | Variant | Tm | unfolding enthalpy (calorimetric)
18 | MKALIVLGLVLLSVTVQGKVFERCELARTLKRLGMDGYRGISLANWMCLAKWESGYNTRATNYNAGDRSTDYGIFQINSRYWCNDGKTPGAVNACHLSCSALLQDNIADAVACAKRVVRDPQGIRAWMAWRNRCQNRDVRQYVQGCGV | 72.8 °C | 123 kcal/mol

Same assay, conditions: Homo sapiens; pH 2.82; Thermal; DSC; glycine-HCl 0.05 M; reversible: yes; structure 1LZ1; whole UniProt chain shown

Row | Variant | Tm | unfolding enthalpy (calorimetric)
19 | MKALIVLGLVLLSVTVQGKVFERCELARTLKRLGMDGYRGISLANWMCLAKWESGYNTRATNYNAGDRSTDYGIFQINSRYWCNDGKTPGAVNACHLSCSALLQDNIADAVACAKRVVRDPQGIRAWLAWRNRCQNRDVRQYVQGCGV | 67 °C | 111 kcal/mol

Same assay, conditions: Homo sapiens; pH 3.03; Thermal; DSC; glycine-HCl 0.05 M; reversible: yes; structure 1LZ1; whole UniProt chain shown

Row | Variant | Tm | unfolding enthalpy (calorimetric)
20 | MKALIVLGLVLLSVTVQGKVFERCELARTLKRLGMDGYRGISLANWMCLAKWESGYNTRATNYNAGDRSTDYGIFQINSRYWCNDGKTPGAVNACHLSCSALLQDNIADAVACAKRVVRDPQGIRAWLAWRNRCQNRDVRQYVQGCGV | 70.5 °C | 115 kcal/mol

Same assay, conditions: Homo sapiens; pH 3.25; Thermal; DSC; glycine-HCl 0.05 M; reversible: yes; structure 1LZ1; whole UniProt chain shown

Row | Variant | Tm | unfolding enthalpy (calorimetric)
21 | MKALIVLGLVLLSVTVQGKVFERCELARTLKRLGMDGYRGISLANWMCLAKWESGYNTRATNYNAGDRSTDYGIFQINSRYWCNDGKTPGAVNACHLSCSALLQDNIADAVACAKRVVRDPQGIRAWLAWRNRCQNRDVRQYVQGCGV | 74.5 °C | 121 kcal/mol

Source: FireProtDB (doi:10.1021/bi0015717)
